Laboratory results as given in PMC8187382, “The archaeal protein SepF is essential for cell division in Haloferax volcanii” (Nature Communications, 2021).

Molecular target: the molecule itself
Assay: SEC; 500 µl freshly purified SepF-His on Superdex 200 10/300 GL in Buffer A (1.5 M KCl, 100 mM NaCl, 50 mM HEPES, 1 mM DTT, pH 7.5), 0.5 ml/min; gel filtration standard run under the same conditions; no protein eluted at volumes of higher oligomers

B1: SepF-His (H. volcanii SepF expressed in E. coli) (natural protein, Haloferax volcanii, UniProt D4H018 1-118, looked up)
chain: MGIMSKILGGGGSRTTEDYVELDLDDFDTARGDAGLSVHIAEIGGQQDVIAIKDAVYDGNLVIADITRHTTSDSTMEHIIDDLRQVAREVDGDIVQKGDDQIVITPTGISISRQKLNG
notes: SepF of Haloferax volcanii, encoded by hvo_0392, 118 amino acids, 12.6 kDa; sepF amplified from genomic DNA of strain H26 and cloned by FX-cloning; FX-cloning may leave extra residues at the ends; also called purified SepF; Hvo_0392
  stoichiometry N: 2
